Test results taken from article PMC4565748 (Molecular immunology, 2015).

B1: staphylococcal complement inhibitor SCIN-A, full-length wild type (natural protein)
chain: STSLPTSNEYQNEKLANELKSLLDELNVNELATGSLNTYYKRTIKISGQKAMYALKSKDFKKMSEAKYQLQKIYNEIDEALKSKY
B2: SCIN-A.R42A (natural protein)
chain: STSLPTSNEYQNEKLANELKSLLDELNVNELATGSLNTYYKATIKISGQKAMYALKSKDFKKMSEAKYQLQKIYNEIDEALKSKY
B3: SCIN-A.Q49A (natural protein)
chain: STSLPTSNEYQNEKLANELKSLLDELNVNELATGSLNTYYKRTIKISGAKAMYALKSKDFKKMSEAKYQLQKIYNEIDEALKSKY
B4: SCIN-A.R42A.Q49A (natural protein)
chain: STSLPTSNEYQNEKLANELKSLLDELNVNELATGSLNTYYKATIKISGAKAMYALKSKDFKKMSEAKYQLQKIYNEIDEALKSKY

Key:
[1] = target: T1, complement C3b, site-specifically biotinylated (human, UniProt P01024 23-667; P01024 749-1663, biotin, site-specific (site not given)); test: SPR
[2] = target: T1, complement C3b, site-specifically …; test: SPR; remark: listed apart in the source
[3] = target: T1, complement C3b, site-specifically …; test: AlphaScreen or HTRF

Row | Binder | Kd [1] [µM] | koff [1] [s⁻¹] | kon [1] [M⁻¹ s⁻¹] | Kd [2] [µM] | Kd [3] [µM]
1 | B1 | 0.096 ± 0.016 | 0.051 | 550000 | 0.145 ± 0.056 | –
2 | B2 | 6.6 ± 0.62 | 0.58 | 89000 | 8.5 ± 0.12 | 14
3 | B3 | 0.069 ± 0.0083 | 0.051 | 760000 | 0.22 ± 0.098 | 0.12
4 | B4 | – | – | – | 15 | 14
